Tests used:
Test in all cases: flow cytometry, IgG on cells expressing the mutant
[1] = molecular target: human CD33 variant Y50S (human, UniProt P20138 18-364)
Procedure: (§1) An alanine scan on human CD33 was performed to the determine the residues on CD33 that are involved in binding to the antibodies investigated. […] Briefly, a mutation library of CD33 was created by high-throughput, site-directed mutagenesis. Each residue was individually mutated to alanine, with alanine codons mutated to serine. The mutant library was arrayed in 384-well microplates and transiently transfected into HEK293-T. Following transfection, cells were incubated with the indicated antibodies (IgG or Fab) at concentrations pre-determined using an independent immunofluorescence titration curve on wild type CD33. […] Binding of each antibody to each mutant clone was determined in duplicates. For each point, background fluorescence was subtracted from the raw data, which were then normalized to antibody reactivity with wild type CD33.
(§2) Antibodies were screened for binding to the human CD33 variants in IgG format. […] For each mutation, background fluorescence was subtracted from the raw data, which were then normalized to antibody reactivity with wild-type CD33.

[2] = molecular target: human CD33 variant Y127E (human, UniProt P20138 18-364)
Procedure: as §1, §2

[3] = molecular target: human CD33 variant Y49I (human, UniProt P20138 18-364)
Procedure: as §1, §2

[4] = molecular target: human CD33 variant P48N (human, UniProt P20138 18-364)
Procedure: as §1, §2

[5] = molecular target: human CD33 variant D51K (human, UniProt P20138 18-364)
Procedure: as §1, §2

[6] = molecular target: human CD33 variant Y127H (human, UniProt P20138 18-364)
Chain of human CD33 variant Y127H (P20138 18-364 Y127H limits assumed): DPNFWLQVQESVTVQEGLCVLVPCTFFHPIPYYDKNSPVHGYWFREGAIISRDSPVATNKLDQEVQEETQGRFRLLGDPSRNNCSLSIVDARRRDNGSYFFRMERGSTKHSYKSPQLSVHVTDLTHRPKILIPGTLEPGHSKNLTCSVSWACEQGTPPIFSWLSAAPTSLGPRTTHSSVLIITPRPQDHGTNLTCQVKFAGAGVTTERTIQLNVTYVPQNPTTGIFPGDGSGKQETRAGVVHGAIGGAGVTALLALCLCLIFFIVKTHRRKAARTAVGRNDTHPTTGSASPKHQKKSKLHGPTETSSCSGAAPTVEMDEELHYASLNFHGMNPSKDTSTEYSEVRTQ
Procedure: as §1, §2

[7] = molecular target: human CD33 variant Y50V (human, UniProt P20138 18-364)
Chain of human CD33 variant Y50V (P20138 18-364 Y50V limits assumed): as the sequence (P20138 18-364 Y127H limits assumed) above, with Y33V, H110Y counted along it
Procedure: as §1, §2

[8] = molecular target: human CD33 variant P48S (human, UniProt P20138 18-364)
Chain of human CD33 variant P48S (P20138 18-364 P48S limits assumed): as the sequence (P20138 18-364 Y127H limits assumed) above, with P31S, H110Y counted along it
Procedure: as §1, §2

[9] = molecular target: human CD33 variant P48F (human, UniProt P20138 18-364)
Chain of human CD33 variant P48F (P20138 18-364 P48F limits assumed): as the sequence (P20138 18-364 Y127H limits assumed) above, with P31F, H110Y counted along it
Procedure: as §1, §2

[10] = molecular target: human CD33 variant Y49H (human, UniProt P20138 18-364)
Chain of human CD33 variant Y49H (P20138 18-364 Y49H limits assumed): as the sequence (P20138 18-364 Y127H limits assumed) above, with Y32H, H110Y counted along it
Procedure: as §1, §2

[11] = molecular target: human CD33 variant K52I (human, UniProt P20138 18-364)
Chain of human CD33 variant K52I (P20138 18-364 K52I limits assumed): as the sequence (P20138 18-364 Y127H limits assumed) above, with K35I, H110Y counted along it
Procedure: as §1, §2

[12] = molecular target: human CD33 variant I47Y (human, UniProt P20138 18-364)
Chain of human CD33 variant I47Y (P20138 18-364 I47Y limits assumed): as the sequence (P20138 18-364 Y127H limits assumed) above, with I30Y, H110Y counted along it
Procedure: as §1, §2

[13] = molecular target: human CD33 variant P48Y (human, UniProt P20138 18-364)
Chain of human CD33 variant P48Y (P20138 18-364 P48Y limits assumed): as the sequence (P20138 18-364 Y127H limits assumed) above, with P31Y, H110Y counted along it
Procedure: as §1, §2

[14] = molecular target: human CD33 variant D51Y (human, UniProt P20138 18-364)
Chain of human CD33 variant D51Y (P20138 18-364 D51Y limits assumed): as the sequence (P20138 18-364 Y127H limits assumed) above, with D34Y, H110Y counted along it
Procedure: as §1, §2

[15] = molecular target: human CD33 variant Y49L (human, UniProt P20138 18-364)
Chain of human CD33 variant Y49L (P20138 18-364 Y49L limits assumed): as the sequence (P20138 18-364 Y127H limits assumed) above, with Y32L, H110Y counted along it
Procedure: as §1, §2

Chain of human CD33 variant D51K (P20138 18-364 D51K limits assumed): as the sequence (P20138 18-364 Y127H limits assumed) above, with D34K, H110Y counted along it
Chain of human CD33 variant Y50S (P20138 18-364 Y50S limits assumed): as the sequence (P20138 18-364 Y127H limits assumed) above, with Y33S, H110Y counted along it
Chain of human CD33 variant Y49I (P20138 18-364 Y49I limits assumed): as the sequence (P20138 18-364 Y127H limits assumed) above, with Y32I, H110Y counted along it
Chain of human CD33 variant Y127E (P20138 18-364 Y127E limits assumed): as the sequence (P20138 18-364 Y127H limits assumed) above, with H110E counted along it
Chain of human CD33 variant P48N (P20138 18-364 P48N limits assumed): as the sequence (P20138 18-364 Y127H limits assumed) above, with P31N, H110Y counted along it

B1: Refmab #3 (antibody, human IgG1, V domains shown)
VH: QVQLVQSGAEVKKPGSSVKVSCKASGYTFTDYNMHWVRQAPGQGLEWIGYIYPYNGGTGYNQKFKSKATITADESTNTAYMELSSLRSEDTAVYYCARGRPAMDYWGQGTLVTVSS
VL: DIQMTQSPSSLSASVGDRVTITCRASESVDNYGISFMNWFQQKPGKAPKLLIYAASNQGSGVPSRFSGSGSGTDFTLTISSLQPDDFATYYCQQSKEVPWTFGQGTKVEIK
notes: Tested in IgG format; human IgG1 Fc silent (PG-LALA)
- Mean % WT Binding [1]: 97.2 % of WT
- Mean % WT Binding [2]: 21.5 % of WT
- Mean % WT Binding [3]: 109 % of WT
- Mean % WT Binding [4]: 98.8 % of WT
- Mean % WT Binding [5]: 88.9 % of WT
- Mean % WT Binding [6]: 75.4 % of WT
- Mean % WT Binding [7]: 108 % of WT
- Mean % WT Binding [8]: 100 % of WT
- Mean % WT Binding [9]: 100 % of WT
- Mean % WT Binding [10]: 92.1 % of WT
- Mean % WT Binding [11]: 88.7 % of WT
- Mean % WT Binding [12]: 109 % of WT
- Mean % WT Binding [13]: 90.3 % of WT
- Mean % WT Binding [14]: 87.2 % of WT
- Mean % WT Binding [15]: 93.8 % of WT

B2: Refmab #4 (antibody, human IgG1, V domains shown)
VH: QVQLVQSGAEVKKPGESVKVSCKASGYTFTNYGMNWVKQAPGQGLEWMGWINTYTGEPTYADKFQGRVTMTTDTSTSTAYMEIRNLGGDDTAVYYCARWSWSDGYYVYFDYWGQGTSVTVSS
VL: DIVMTQSPDSLTVSLGERTTINCKSSQSVLDSSTNKNSLAWYQQKPGQPPKLLLSWASTRESGIPDRFSGSGSGTDFTLTIDSPQPEDSATYYCQQSAHFPITFGQGTRLEIK
notes: as for B1
- Mean % WT Binding [1]: 2.9 % of WT
- Mean % WT Binding [2]: 104 % of WT
- Mean % WT Binding [3]: 94 % of WT
- Mean % WT Binding [4]: 3.8 % of WT
- Mean % WT Binding [5]: 42 % of WT
- Mean % WT Binding [6]: 105 % of WT
- Mean % WT Binding [7]: 1.7 % of WT
- Mean % WT Binding [8]: 0.5 % of WT
- Mean % WT Binding [9]: 0.3 % of WT
- Mean % WT Binding [10]: 95.1 % of WT
- Mean % WT Binding [11]: 61.9 % of WT
- Mean % WT Binding [12]: 96 % of WT
- Mean % WT Binding [13]: 0.6 % of WT
- Mean % WT Binding [14]: 61.9 % of WT
- Mean % WT Binding [15]: 110 % of WT
